Results published in IntAct's records for PubMed 17005671.

B1: Tyrosine-protein kinase-interacting protein (Saimiriine herpesvirus 2 (strain 488) (SaHV-2)), P22575 (parent)
chain: MANEGEEIELTEFPETEKERKDEEKLSSCSEETTNTSSSSGSDHVPVPIEVNVIIQNSSRTEDELQNSKEIELTGFQGKLSSCSEETTAPSSSYSSKQASVFIEENGDNETSTYRPQNVLTNLNSLYTTFEDARAQGKGMVRHKSEDLQSFLEKYPPDFRKPKRDLSATWDPGMPTPPLPPRPANLGERQASTVRLHVKESNCKQPRERKANERNIVKDLKRLENKINVIICLVVVILAVLLLVTVLSILHIGMKS

What was measured:
lck_human LCK, P06239 = variants of: B1; conditions: with lck_human LCK
cd4_human CD4, P01730 = variants of: B1; conditions: with cd4_human CD4, P01730

lck_human LCK, P06239, sequence (P06239 whole entry, looked up): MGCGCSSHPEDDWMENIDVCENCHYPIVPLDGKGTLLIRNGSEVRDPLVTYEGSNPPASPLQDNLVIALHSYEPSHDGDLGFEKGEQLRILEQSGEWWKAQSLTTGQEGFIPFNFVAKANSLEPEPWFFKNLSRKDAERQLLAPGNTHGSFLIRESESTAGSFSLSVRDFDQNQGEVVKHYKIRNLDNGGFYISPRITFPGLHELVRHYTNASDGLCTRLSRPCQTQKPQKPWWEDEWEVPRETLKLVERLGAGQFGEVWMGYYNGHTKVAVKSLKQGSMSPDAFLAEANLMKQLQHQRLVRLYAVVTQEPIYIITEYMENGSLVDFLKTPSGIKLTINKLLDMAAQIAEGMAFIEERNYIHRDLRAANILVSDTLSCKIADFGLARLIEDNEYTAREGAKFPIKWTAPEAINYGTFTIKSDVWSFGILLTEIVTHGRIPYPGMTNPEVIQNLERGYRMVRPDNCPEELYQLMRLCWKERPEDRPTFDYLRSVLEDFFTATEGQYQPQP

Row | Variant | effect of a mutation on the interaction (lck_human LCK, P06239) | effect of a mutation on the interaction (cd4_human CD4, P01730)
1 | MANEGEEIELTEFPETEKERKDEEKLSSCSEETTNTSSSSGSDHVPVPIEVNVIIQNSSRTEDELQNSKEIELTGFQGKLSSCSEETTAPSSSYSSKQASVFIEENGDNETSTYRPQNVLTNLNSLYTTFEDARAQGKGMVRHKSEDLQSFLEKYPPDFRKPKRDLSATWDPGMPTAPLPPRPANLGERQASTVRLHVKESNCKQPRERKANERNIVKDLKRLENKINVIICLVVVILAVLLLVTVLSILHIGMKS [P177A] | decreasing interaction | –
2 | MANEGEEIELTEFPETEKERKDEEKLSSCSEETTNTSSSSGSDHVPVPIEVNVIIQNSSRTEDELQNSKEIELTGFQGKLSSCSEETTAPSSSYSSKQASVFIEENGDNETSTYRPQNVLTNLNSLYTTFEDARAQGKGMVRHKSEDLQSFLEKYPPDFRKPKRDLSATWDPGMPTPPLAPRPANLGERQASTVRLHVKESNCKQPRERKANERNIVKDLKRLENKINVIICLVVVILAVLLLVTVLSILHIGMKS [P180A] | decreasing interaction | decreasing interaction
3 | MANEGEEIELTEFPETEKERKDEEKLSSCSEETTNTSSSSGSDHVPVPIEVNVIIQNSSRTEDELQNSKEIELTGFQGKLSSCSEETTAPSSSYSSKQASVFIEENGDNETSTYRPQNVLTNLNSLYTTFEDARAQGKGMVRHKSEDLQSFLEKYPPDFRKPKRDLSATWDPGMPTPPLPPRAANLGERQASTVRLHVKESNCKQPRERKANERNIVKDLKRLENKINVIICLVVVILAVLLLVTVLSILHIGMKS [P183A] | decreasing interaction | decreasing interaction
4 | MANEGEEIELTEFPETEKERKDEEKLSSCSEETTNTSSSSGSDHVPVPIEVNVIIQNSSRTEDELQNSKEIELTGFQGKLSSCSEETTAPSSSYSSKQASVFIEENGDNETSTYRPQNVLTNLNSLYTTFEDARAQGKGMVRHKSEDLQSFLEKYPPDFRKPKRDLSATWDPGMPTPALPPRPANLGERQASTVRLHVKESNCKQPRERKANERNIVKDLKRLENKINVIICLVVVILAVLLLVTVLSILHIGMKS [P178A] | decreasing interaction | decreasing interaction
5 | MANEGEEIELTEFPETEKERKDEEKLSSCSEETTNTSSSSGSDHVPVPIEVNVIIQNSSRTEDELQNSKEIELTGFQGKLSSCSEETTAPSSSYSSKQASVFIEENGDNETSTYRPQNVLTNLNSLYTTFEDARAQGKGMVRHKSEDLQSFLEKYPPDFRKPKRDLSATWDPGMATPPLPPRPANLGERQASTVRLHVKESNCKQPRERKANERNIVKDLKRLENKINVIICLVVVILAVLLLVTVLSILHIGMKS [P175A] | decreasing interaction | decreasing interaction
